What was measured:
[1] = target: Human TAp63α (aa10-616, TEV site inserted at aa570 and V599M) (human); assay: SEC
native gel or EMSA = target: the molecule itself; assay: native gel or EMSA

Molecule: Human TAp63α (aa10-616, TEV site inserted at aa570 and V599M) (natural protein)
- stoichiometry N [1]: 2

B1: TAp63α, endogenous in mouse ovaries, untreated (closed dimeric form) (natural protein, mouse (endogenous in ovaries), UniProt O88898-1 40-680, looked up)
chain: MSQSTQTSEFLSPEVFQHIWDFLEQPICSVQPIELNFVDEPSENGATNKIEISMDCIRMQDSDLSDPMWPQYTNLGLLNSMDQQIQNGSSSTSPYNTDHAQNSVTAPSPYAQPSSTFDALSPSPAIPSNTDYPGPHSFDVSFQQSSTAKSATWTYSTELKKLYCQIAKTCPIQIKVMTPPPQGAVIRAMPVYKKAEHVTEVVKRCPNHELSREFNEGQIAPPSHLIRVEGNSHAQYVEDPITGRQSVLVPYEPPQVGTEFTTVLYNFMCNSSCVGGMNRRPILIIVTLETRDGQVLGRRCFEARICACPGRDRKADEDSIRKQQVSDSAKNGDGTKRPFRQNTHGIQMTSIKKRRSPDDELLYLPVRGRETYEMLLKIKESLELMQYLPQHTIETYRQQQQQQHQHLLQKQTSMQSQSSYGNSSPPLNKMNSMNKLPSVSQLINPQQRNALTPTTMPEGMGANIPMMGTHMPMAGDMNGLSPTQALPPPLSMPSTSHCTPPPPYPTDCSIVSFLARLGCSSCLDYFTTQGLTTIYQIEHYSMDDLASLKIPEQFRHAIWKGILDHRQLHDFSSPPHLLRTPSGASTVSVGSSETRGERVIDAVRFTLRQTISFPPRDEWNDFNFDMDSRRNKQQRIKEEGE
- stoichiometry N (native gel or EMSA): 2

B2: TAp63α, endogenous in mouse ovaries, phosphorylated after 0.5 Gy γ-irradiation (active tetrameric form) (natural protein, mouse (endogenous in ovaries), UniProt O88898-1 40-680, looked up)
chain: MSQSTQTSEFLSPEVFQHIWDFLEQPICSVQPIELNFVDEPSENGATNKIEISMDCIRMQDSDLSDPMWPQYTNLGLLNSMDQQIQNGSSSTSPYNTDHAQNSVTAPSPYAQPSSTFDALSPSPAIPSNTDYPGPHSFDVSFQQSSTAKSATWTYSTELKKLYCQIAKTCPIQIKVMTPPPQGAVIRAMPVYKKAEHVTEVVKRCPNHELSREFNEGQIAPPSHLIRVEGNSHAQYVEDPITGRQSVLVPYEPPQVGTEFTTVLYNFMCNSSCVGGMNRRPILIIVTLETRDGQVLGRRCFEARICACPGRDRKADEDSIRKQQVSDSAKNGDGTKRPFRQNTHGIQMTSIKKRRSPDDELLYLPVRGRETYEMLLKIKESLELMQYLPQHTIETYRQQQQQQHQHLLQKQTSMQSQSSYGNSSPPLNKMNSMNKLPSVSQLINPQQRNALTPTTMPEGMGANIPMMGTHMPMAGDMNGLSPTQALPPPLSMPSTSHCTPPPPYPTDCSIVSFLARLGCSSCLDYFTTQGLTTIYQIEHYSMDDLASLKIPEQFRHAIWKGILDHRQLHDFSSPPHLLRTPSGASTVSVGSSETRGERVIDAVRFTLRQTISFPPRDEWNDFNFDMDSRRNKQQRIKEEGE
modifications: phosphorylated (phosphorylation dependent mobility shift on SDS-PAGE); the sites were not determined in this experiment
- stoichiometry N (native gel or EMSA): 4
